Target: non-covalent complex of the soluble extracellular domain of human neonatal Fc receptor (FcRn) with C-terminal His-Avi Tag and human beta-2-microglobulin, biotinylated (human) (UniProt P55899)
Assay: FcRn affinity chromatography, Fc part after IdeS cleavage and preparative SEC

retention time: 52 min
Substance: Fc part of anti-Abeta antibody (YTE mutant)
